B1: AZUL-mEGFP (E6AP isoform II 24–87 with a C-terminal mEGFP) (domain or fragment, UniProt Q05086 24-87, looked up)
chain: MKRAAAKHLIERYYHQLTEGCGNEACTNEFCASCPTFLRMDNNAAAIKALELYKINAKLCDPHP
B2: UBQLN1 (514–589, F547Y) (domain or fragment, UniProt Q9UMX0 514-589, looked up)
chain: TAGTTEPGHQQFIQQMLQALAGVNPQLQNPEVRYQQQLEQLSAMGFLNREANLQALIATGGDINAAIERLLGSQPS

Columns and labels:
UBQLN2 = UBQLN2 (UniProt Q9UHD9 1-624); assay: recruitment to biomolecular condensates in vitro
UBQLN2 UBL (26–103) = UBQLN2 UBL (26–103) (UniProt Q9UHD9 26-103); assay: NMR titration
UBQLN2 UBL (26–103), sequence (Q9UHD9 26-103): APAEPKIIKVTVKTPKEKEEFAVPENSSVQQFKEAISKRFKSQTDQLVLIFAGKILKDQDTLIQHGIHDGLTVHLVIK

Binder | binding result (UBQLN2) | binding result (UBQLN2 UBL (26–103))
B1 | binds | –
B2 | – | binds
